From patent US20200325233A1 (ABCURO, published 2020)
Changes are numbered by the printed parent chain.

T1: cyno KLRG1 extracellular domain (ECD) (cynomolgus, biotinylated in the Octet assay (site not stated))
T1 construct: Recombinant proteins were made as FC fusion or HIS tagged versions; also called cynomolgus-KLRG1-ECD; cyno KRG1 ECD
T1 chain: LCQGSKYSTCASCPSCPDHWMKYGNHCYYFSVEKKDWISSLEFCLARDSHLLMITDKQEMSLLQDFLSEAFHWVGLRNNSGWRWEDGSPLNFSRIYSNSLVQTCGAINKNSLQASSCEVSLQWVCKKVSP

T2: SPLNFSRISSNSFVQ
T2 peptide: SPLNFSRISSNSFVQ

T3: WEDGSPLNFSRISSN
T3 peptide: WEDGSPLNFSRISSN

T4: full length cynomolgus KLRG1 (cell-expressed) (cynomolgus, UniProt A0A2K5WAP9 1-186)
T4 construct: whole, on cells; also called CHO-cynomolgus-KLRG1; cyno KLRG1
T4 sequence: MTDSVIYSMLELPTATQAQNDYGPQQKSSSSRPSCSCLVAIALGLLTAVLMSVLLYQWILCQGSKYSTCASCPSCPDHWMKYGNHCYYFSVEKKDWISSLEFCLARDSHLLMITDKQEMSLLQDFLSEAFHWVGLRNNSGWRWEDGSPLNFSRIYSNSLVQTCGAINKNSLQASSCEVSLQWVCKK

T5: full length human KLRG1 (cell-expressed) (human, UniProt Q96E93 1-195)
T5 construct: whole, on cells; also called CHO-human-KLRG1
T5 sequence (looked up): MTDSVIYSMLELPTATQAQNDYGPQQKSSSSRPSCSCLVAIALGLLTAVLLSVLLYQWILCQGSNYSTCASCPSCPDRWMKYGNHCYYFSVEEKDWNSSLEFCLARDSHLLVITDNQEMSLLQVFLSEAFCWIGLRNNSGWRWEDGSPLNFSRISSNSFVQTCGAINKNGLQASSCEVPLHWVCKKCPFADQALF

T6: human KLRG1 extracellular domain (ECD) (human, UniProt Q96E93 60-186, biotinylated in the Octet assay (site not stated))
T6 construct: Recombinant proteins were made as FC fusion or HIS tagged versions; also called Human-KLRG-ECD; human KLRG1 ECD
T6 sequence: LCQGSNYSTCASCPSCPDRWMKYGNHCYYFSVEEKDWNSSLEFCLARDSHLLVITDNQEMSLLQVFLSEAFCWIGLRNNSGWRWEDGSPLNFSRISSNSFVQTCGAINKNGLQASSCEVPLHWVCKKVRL

B1: ABC_G1D03 (antibody, V domains shown)
VH: EVQLQQSGPELVKPGASVKMSCKTSGYTFTDHNMHWLKQSHGKGLEWFGFINPNTGVTRYNQKFNGKATLTINKSSSTAYLDLRSLTSEDSAVYYCTRDYYGSAWFAYWGQGTLVTVSA
VL: DIVMSQSPASQTVSVGEKVTMSCKSSQTLLYSSDQKNYLAWYQQKPGQSPKLLIYWASTRESGVPDRFTGSGSGTDFTLTISSVKAEDLAVYYCQQYYNYPTFGGGTKLEIK
notes: Mouse hybridoma monoclonal antibody
B2: ABC_G1D01 (antibody, V domains shown)
VH: EVQLQQSGPELVKPGASVKMSCKASGYTFTDYNIHWVKQSHGKSLEWIGFFNPKNGVTINNQNFKGKAALTVNKSSSTAYMELRRLTSEDSAVYYCARDYYGTAWFAYWGQGTLVTVSA
VL: B1 VL with A9S, Q11L, T12A, K24R, T28S, D34N, Y97F, N99S
notes: as for B1
B3: ABC_G1D06 (antibody, V domains shown)
VH: QVQLQQSGAELVRPGASVTLSCKASGYKFSDYEIHWVKQTPVYGLEWIGALEPATGGTAYNPNFKGKAILTADKSSTTAYMELRSLTSEDSAVYYCSMHLAVYWGQGTLVTVSA
VL: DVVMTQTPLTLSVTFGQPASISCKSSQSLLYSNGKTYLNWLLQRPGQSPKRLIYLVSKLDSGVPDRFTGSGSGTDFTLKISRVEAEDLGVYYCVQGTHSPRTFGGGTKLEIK
notes: as for B1
B4: ABC_G1D02 (antibody, V domains shown)
VH: QVQLQQSGAELVRPGTSVKVSCKASGYAFTNYFIEWIKQRPGQGLEWIGVINPGSGGTNYNEKFKGKATLTADKSSSTAYMQLSSLTSEDSAVYFCTRPGHFDYWGQGTTLTVSS
VL: EIVLTQSPTTMAASPGEKITITCSASSSISSNYLHWYQQKPGFSPKLLIYKTSNLASGVPPRFSGSGSGTSYSLTIGTMEAEDVATYYCQQGNSIPRTFGGGTKLEIK
notes: as for B1
B5: ABC_HG1D02 (antibody, V domains shown)
VH: QVQLVQSGAEVKKPGSSVKVSCKASGYAFTNYFIEWVRQRPGQGLEWMGVINPGSGGTNYNEKFKGRVTITADKSSSTAYMELSSLRSEDTAVYYCARPGHFDYWGQGTTVTVSS
VL: EIVLTQSPTTLSLSPGERATLSCSASSSISSNYLHWYQQKPGFAPRLLIYKTSNLASGIPPRFSGSGSGTDFTLTISRLEPEDFAVYYCQQGNSIPRTFGQGTKVEIKR
notes: The printed VK entry ends in 'RTV' (start of the constant kappa domain)
B6: ABC_HG1D03 (antibody, V domains shown)
VH: EVQLVQSGAEVKKPGASVKVSCKASGYTFTDHNMHWVKQATGQGLEWFGFINPNTGVTRYNQKFQGRVTLTINKAISTAYLELSSLRSEDTAVYYCARDYYGSAWFAYWGQGTLVTVSS
VL: not shown
notes: The printed VK entry ends at '...FGGGTKV' (appears cut short of the usual end of the domain)
B7: ABC_G1D04 (antibody, V domains shown)
VH: EVQLQQSGPELVKPGSSLMMSCKSSGYTFTDYNIHWVKQSHGKRLEWIGFIDPKNGGTLYSEKFKDKATLTINKSSSTAYMELRSLTSEDSAVFYCAPDYYGSAWFAYWGQGTLVTVSA
VL: DIVMSQSPSSLTVSVGENVTMSCKSSQNLLYTSNQKNYLAWYQQKPGHSPKLLISWASTRESGVPDRFTGSGSGTDFTLTITSVKAEDLAVFYCQQYYHYPTFGGGTKLEIK
notes: as for B1
B8: ABC_G1D05 (antibody, V domains shown)
VH: QVQLKQSGPGLVQPSQSLSITCTVSGFSLTTHGVHWVRQSPGKGLEWLGVIWSGGSTDYNAAFISRLSIRKDNSKSQVFFKMNSLQTNDTAIYYCARLRLPAMDYWGQGTSVTVSS
VL: QIVLTQSPTIMSASLGERVTMTCTASSSVSSTYLHWYQQKPGSSPKLWIYSTSNLASGVPARFSGSGSGTSYSLTISSMEAEDAATYYCHQYHRSPLSFGAGTKLELK
notes: as for B1

Tests used:
[1] = target: T1, cyno KLRG1 extracellular domain (ECD); experiment: hybridoma screening for binding to cyno KLRG1 ECD
SPLNFSRISSNSFVQ = target: T2, SPLNFSRISSNSFVQ; experiment: peptide mapping: ABC_G1D03 on overlapping KLRG1 peptides, signal per peptide
WEDGSPLNFSRISSN = target: T3, WEDGSPLNFSRISSN; experiment: as above
[2] = target: T4, full length cynomolgus KLRG1 …; experiment: FACS on CHO cells expressing full length cynomolgus KLRG1, anti-mouse detection
Protocol: (§1) Binding of anti-KLRG1 monoclonal antibodies to cells that expressed human and cynomolgus-KLRG1 was carried out by FACS. Chinese hamster ovary (CHO) cells were stably transfected to express full length human KLRG1 (CHO-human-KLRG1) and cynomolgus KLRG1 (CHO-cynomolgus-KLRG1). […] Table 7 summarizes the EC50 binding data measured for selected antibodies.

[3] = target: T5, full length human KLRG1 (cell-expressed); experiment: FACS on CHO cells expressing full length human KLRG1, anti-mouse detection
Protocol: as §1

[4] = target: T1, cyno KLRG1 extracellular domain (ECD); experiment: Octet BLI, biotinylated antigen on streptavidin sensor, antibody in solution, 1:1 fit
Protocol: (§2) Binging kinetics of humanized antibodies for human and cynomolgus KLRG1 were determined by Octet® Systems (ForteBio) measurement. The Octet® platform includes instruments, biosensors, reagents, and assay kits for analysis of biomolecular interactions in 96- and 384-well microplates for use in real-time, label-free analysis for determination of affinity, kinetics, and concentration. The experimental set-up includes immobilizing biotinylated recombinant antigen (Human-KLRG-ECD or cynomolgus-KLRG1-ECD) on a streptavidin Octet® sensor to produce antigen loaded sensors. […] Thereafter, the sensors can be exposed to a solution of 1× phosphate buffered saline (PBS) buffer devoid of antibody for approximately 600 seconds to observe dissociation kinetics (kdis). The resulting data can then be fitted to a 1:1 binding kinetics model using, for example, ForteBio analysis software to calculate the KD. Kinetic binding parameters derived by this method are summarized in Table 8 for three humanized antibodies.

[5] = target: T6, human KLRG1 extracellular domain (ECD); experiment: as above
Protocol: as §2

Row | Binder | binding result [1] | binding result (SPLNFSRISSNSFVQ) | binding result (WEDGSPLNFSRISSN) | EC50 [2] | EC50 [3] | Kd [4] | koff [4] | kon [4] | Kd [5] | koff [5] | kon [5]
1 | B1 | binds | binds | binds | 8.63 nM | 6.3 nM | – | – | – | – | – | –
2 | B2 | – | – | – | 3.44 nM | 4.87 nM | – | – | – | – | – | –
3 | B3 | binds | – | – | 3.4 nM | 72.5 nM | – | – | – | – | – | –
4 | B4 | binds | – | – | 10.1 nM | 9.11 nM | – | – | – | – | – | –
5 | B5 | – | – | – | – | – | 0.388 nM | 0.000142 s⁻¹ | 367000 M⁻¹ s⁻¹ | 0.0567 nM | 3.07e-05 s⁻¹ | 541000 M⁻¹ s⁻¹
6 | B6 | – | – | – | – | – | 0.0609 nM | 3.82e-05 s⁻¹ | 627000 M⁻¹ s⁻¹ | 0.156 nM | 5.91e-05 s⁻¹ | 380000 M⁻¹ s⁻¹
7 | B7 | binds | – | – | 7.2 nM | 213 nM | – | – | – | – | – | –
8 | B8 | binds | – | – | 5.93 nM | 5.15 nM | – | – | – | – | – | –
